One molecule from patent US20010029293A1 (ICOS, published 2001) can be followed below.

Assay [1] deals with T1, chimeric Protein 3 (ICAM-R domains 1-3 / ICAM-1) (human, UniProt P05362 317-532).
T1 construct: range 317-532; on COS cells; also called Protein number 3; RD1-3.1D4-5
Nature of the assay: FACS, 5 µg/ml.

Assay [2] concerns the target T2, human ICAM-1 (human, UniProt P05362 28-532).
T2 construct: whole, on cells; on transfected L or COS cells
Nature of the assay: FACS, 5 µg/ml. (In general: Flow cytometry measures light scatter and fluorescence of single cells or particles in a stream.)

The target in assay [3] is T3, human ICAM-R (human, UniProt P32942 30-547).
T3 construct: On transfected L, CV-1 or COS cells, or native on human leukocytes and cell lines; also called ICAM-3; CDw50
T3 chain: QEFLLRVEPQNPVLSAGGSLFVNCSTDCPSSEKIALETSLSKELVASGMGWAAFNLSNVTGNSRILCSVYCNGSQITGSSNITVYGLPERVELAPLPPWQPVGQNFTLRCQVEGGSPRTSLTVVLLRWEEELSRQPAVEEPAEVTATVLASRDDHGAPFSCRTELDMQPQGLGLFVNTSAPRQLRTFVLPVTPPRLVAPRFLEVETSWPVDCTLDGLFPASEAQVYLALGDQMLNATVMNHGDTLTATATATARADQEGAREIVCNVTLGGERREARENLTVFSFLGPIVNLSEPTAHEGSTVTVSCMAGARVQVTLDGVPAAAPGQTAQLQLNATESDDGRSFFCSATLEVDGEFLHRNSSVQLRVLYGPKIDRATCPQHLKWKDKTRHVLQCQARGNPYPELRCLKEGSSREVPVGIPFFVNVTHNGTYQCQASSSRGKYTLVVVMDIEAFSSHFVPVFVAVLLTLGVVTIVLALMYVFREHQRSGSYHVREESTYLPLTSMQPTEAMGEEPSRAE
Description: FACS, 5 µg/ml.

The target of assay [4] is T4, soluble human ICAM-R (human, UniProt P32942 30-485).
T4 construct: baculovirus/Sf-9 product; also called shICAM-R; ICAM-Rt1
T4 chain: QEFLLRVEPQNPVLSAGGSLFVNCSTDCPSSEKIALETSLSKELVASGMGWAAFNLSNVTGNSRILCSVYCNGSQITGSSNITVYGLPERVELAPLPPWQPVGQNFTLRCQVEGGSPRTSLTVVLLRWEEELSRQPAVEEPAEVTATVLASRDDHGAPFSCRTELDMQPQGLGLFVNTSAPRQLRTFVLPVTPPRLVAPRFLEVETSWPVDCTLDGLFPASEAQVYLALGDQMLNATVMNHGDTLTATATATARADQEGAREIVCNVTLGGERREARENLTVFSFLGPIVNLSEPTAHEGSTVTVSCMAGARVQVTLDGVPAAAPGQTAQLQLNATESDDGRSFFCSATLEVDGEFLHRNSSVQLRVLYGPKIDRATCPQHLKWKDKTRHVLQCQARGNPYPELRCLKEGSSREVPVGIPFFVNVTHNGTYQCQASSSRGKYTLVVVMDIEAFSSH
Nature of the assay: ELISA on coated shICAM-R; Low = 50% maximal binding at >1 µg/ml, High = at <1 µg/ml. (In general: An ELISA detects its analyte on a solid surface through an enzyme-linked reagent.)

Assay [5] addresses T3, human ICAM-R. Nature of the assay: cell-based or functional assay.

T2 sequence (P05362 28-532): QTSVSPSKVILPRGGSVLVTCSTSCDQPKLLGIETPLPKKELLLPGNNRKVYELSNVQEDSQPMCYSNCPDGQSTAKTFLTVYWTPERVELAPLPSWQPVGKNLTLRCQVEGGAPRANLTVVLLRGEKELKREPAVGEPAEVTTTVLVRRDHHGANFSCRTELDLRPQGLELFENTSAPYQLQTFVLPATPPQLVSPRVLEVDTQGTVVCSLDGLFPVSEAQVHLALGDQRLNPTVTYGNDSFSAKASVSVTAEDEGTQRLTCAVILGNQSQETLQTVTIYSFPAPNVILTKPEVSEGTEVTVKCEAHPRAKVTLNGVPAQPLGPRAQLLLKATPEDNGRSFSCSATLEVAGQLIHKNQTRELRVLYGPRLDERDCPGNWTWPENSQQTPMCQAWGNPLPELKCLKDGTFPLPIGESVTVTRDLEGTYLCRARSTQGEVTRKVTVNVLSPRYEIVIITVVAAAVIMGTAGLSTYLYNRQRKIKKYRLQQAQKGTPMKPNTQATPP

B1: ICR-1.1 (antibody, mouse IgG2a, V domains shown)
VH: QVQLQQSGAELADPGASVKMSCKASGYTFTVYWMHWVKQRPGQGLEWIGYINPNTDYTEYNQRFQDKATLTADKSSSTAYMQLSSLTSEDSAVYYCARWGGNSYGLDYWGQGTSVTVSS
VL: QIVLTQSPALMSASPGEKVTMTCSASSSVSYIYWYQQKPRSSPKPWIYLTSNLASGVPARFSGSGSGASYSLTISIMEAEDAATYYCQQWKSIPLTFGAGTKLELK
notes: murine IgG2a, kappa; also called 26E3D; 26E3D-1
Take B1: the results for the “percent positive COS cell transfectants” value in assay [1], in assay [2] and in assay [3] were 52.7%, 2.43% and 54.3%, respectively. Moreover, the “monoclonal antibody concentration at 50% maximal binding (ELISA EC50)” value in assay [4] is above 1000 ng/mL. Also, the “IC50 (µg/ml), inhibition of SEA-induced PBL proliferation by plate-bound antibody” value in assay [5] worked out at 63 µg/mL.
